Test results as given in US20240082414A1 (Eli Lilly, published 2024).
Numbering of substitutions follows the chain as printed.

B1: anti-human TNFα antibody Ab1 (antibody, human IgG1, kappa, V domains shown)
VH: QVQLVQSGAEVKKPGASVKVSCKASGYTFTGYYIHWVRQAPGQGLEWMGWINPYTGGTNYAQKFQGRVTMTRDTSISTAYMELSRLRSDDTAVYYCARDLYGSSNYGGDVWGQGTTVTVSS
VL: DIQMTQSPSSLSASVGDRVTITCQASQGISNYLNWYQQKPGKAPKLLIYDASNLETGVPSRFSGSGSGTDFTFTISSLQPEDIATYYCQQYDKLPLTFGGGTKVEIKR
notes: Human IgG1 with engineered cysteines at heavy chain positions 124 and 378 (EU numbering); expressed in CHO cells; also called anti-human TNFα Ab1; unconjugated anti-human TNFα Ab1
B2: anti-human TNFα antibody Ab3 (antibody, human IgG1, kappa, V domains shown)
VH: B1 VH with I34M, N59K, G108M
VL: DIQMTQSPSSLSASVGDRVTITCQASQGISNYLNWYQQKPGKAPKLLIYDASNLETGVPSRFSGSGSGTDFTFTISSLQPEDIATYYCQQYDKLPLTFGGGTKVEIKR
notes: Human IgG1; expressed in CHO cells
B3: anti-human TNFα antibody Ab2 (antibody, human IgG1, kappa, V domains shown)
VH: B1 VH with G108M
VL: not shown
notes: as for B2
B4: anti-human TNFα antibody Ab4 (antibody, human IgG1, kappa, V domains shown)
VH: B1 VH with I34M, N59K, G108M
VL: not shown
notes: as for B2
B5: anti-human TNFα antibody Ab5 (antibody, human IgG1, kappa, V domains shown)
VH: B1 VH with I34M, N59K, G108M
VL: DIQMTQSPSSLSASVGDRVTITCQASQGIRNYLNWYQQKPGKAPKLLIYDASNLETGVPSRFSGSGSGTDFTFTISSLQPEDIATYYCQQYDKLPLTFGGGTKVEIKR
notes: as for B2
B6: anti-human TNFα antibody Ab6 (antibody, human IgG1, kappa, V domains shown)
VH: B1 VH with L100I
VL: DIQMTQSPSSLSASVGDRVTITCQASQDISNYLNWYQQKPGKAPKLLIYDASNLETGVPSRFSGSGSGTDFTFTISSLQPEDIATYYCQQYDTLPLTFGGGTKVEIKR
notes: Human IgG1

Biological target: T1, human TNFα (recombinant, soluble) (human, UniProt P01375 77-233)
T1 sequence (P01375 77-233 limits assumed): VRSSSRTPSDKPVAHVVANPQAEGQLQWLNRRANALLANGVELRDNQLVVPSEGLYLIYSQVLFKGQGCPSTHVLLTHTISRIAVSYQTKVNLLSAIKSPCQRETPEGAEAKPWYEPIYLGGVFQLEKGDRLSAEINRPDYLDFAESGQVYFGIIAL
Experiment: cell-based or functional assay

| Binder | Inhibition of soluble human TNFα induced apoptosis IC50 (L929 cells) |
| --- | --- |
| B1 | 0.089 µg/mL |

Biological target: membrane human TNFα (non-cleavable TNFα construct stably transfected into CHO cells) (human, UniProt P01375 1-233)
Experiment: cell-based or functional assay

| Binder | Inhibition of membrane human TNFα-induced apoptosis IC50 (L929 cells) |
| --- | --- |
| B2 | 0.15 µg/mL |
| B3 | 0.13 µg/mL |
| B4 | 0.13 µg/mL |
| B5 | 0.2 µg/mL |

Biological target: T1, human TNFα (recombinant, soluble)
Experiment: cell-based or functional assay
Remark: another data set of the same source

| Binder | Inhibition of soluble human TNFα induced apoptosis IC50 (L929 cells) |
| --- | --- |
| B2 | 0.19 µg/mL |
| B3 | 0.13 µg/mL |
| B4 | 0.19 µg/mL |
| B5 | 0.22 µg/mL |
| B1 | 0.16 µg/mL |

Biological target: T2, rhesus macaque TNFα (rhesus macaque, UniProt P48094 77-233)
T2 construct: Bought protein; also called rhesus macaque monkey TNFα (R&D Systems, Cat# 1070-RM)
T2 sequence (P48094 77-233 limits assumed): as the sequence (P01375 77-233 limits assumed) above, with R44T, T72N, R138L counted along it
Experiment: antigen-down ELISA, plate coated with rhesus macaque TNFα
Experimental: (§1) Example 2a. […] Briefly, 384-well high binding plates (Greiner Bio-one #781061) were coated with 20 μL per well of 1 μg/mL of human TNFα (Syngene), 2 μg/mL of rhesus macaque TNFα (R&D Systems, Cat# 1070-RM), or 2 μg/mL of canine TNFα (R&D Systems, Cat# 1507-CT/CF) diluted in carbonate buffer pH 9.3 (0.015 M Na₂CO₃ and 0.035 M NaHCO₃) and stored at 4° C. overnight. […] The plates were incubated at 37° C. for 90 min, then washed three times in PBS/0.1% Tween. 20 μL of secondary antibody reagent goat-anti-human-kappa-AP (Southern Biotech, Cat# 2060-04) with 1:1500 dilution was added to the plate and incubated for 45 minutes at 37° C. Plates were washed 3 times as above, and 20 μL of alkaline phosphatase substrate solution diluted to 1:35 in molecular grade water was added to every well. Once the color developed (approximately 15-30 min), plates were read at 560 nm OD on a Molecular Device Spectramax plate reader and data was acquired using Softmax Pro 4.7 software. Data analysis was performed in GraphPad Prism.

| Binder | EC50 |
| --- | --- |
| B2 | 0.141 µg/mL |
| B3 | 0.162 µg/mL |
| B4 | 0.144 µg/mL |
| B5 | 0.161 µg/mL |
| B6 | 0.115 µg/mL |
| B1 | 0.156 µg/mL |

Biological target: T3, canine TNFα (canine, UniProt P51742 77-233)
T3 construct: Bought protein; also called Canine TNFα (R&D Systems, Cat# 1507-CT/CF)
T3 sequence (P51742 77-233 limits assumed): as the sequence (P01375 77-233 limits assumed) above, with R2K, Q21E, N30S, R44T, V49I, E53D, I83F, A109T, R138L, D140N counted along it
Experiment: antigen-down ELISA, plate coated with canine TNFα
Experimental: as §1

| Binder | EC50 |
| --- | --- |
| B2 | 0.24 µg/mL |
| B3 | 0.24 µg/mL |
| B4 | 0.231 µg/mL |
| B5 | 0.176 µg/mL |
| B6 | 0.162 µg/mL |
| B1 | 0.22 µg/mL |

Biological target: TNFα expressed on human monocyte-derived dendritic cells (human, UniProt P01375 1-233)
Sequence (P01375 whole entry): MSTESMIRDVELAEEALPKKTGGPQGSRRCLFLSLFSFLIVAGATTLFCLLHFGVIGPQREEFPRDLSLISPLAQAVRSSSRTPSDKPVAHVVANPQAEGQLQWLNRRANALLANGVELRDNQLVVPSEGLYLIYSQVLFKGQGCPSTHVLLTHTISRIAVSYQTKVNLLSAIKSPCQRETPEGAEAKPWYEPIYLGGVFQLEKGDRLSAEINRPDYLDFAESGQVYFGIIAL
Experiment: cell-based or functional assay

| Binder | Immature Dendritic Cell Internalization Index | Mature Dendritic Cell Internalization Index |
| --- | --- | --- |
| B2 | 20 | 35.2 |
| B3 | 21.9 | 38.3 |
| B4 | 33.6 | 43.1 |
| B5 | 54.6 | 52.7 |
| B1 | 19.4 | 26.7 |

Biological target: T1, human TNFα (recombinant, soluble)
Experiment: antigen-down ELISA, plate coated with human TNFα
Experimental: as §1

| Binder | EC50 |
| --- | --- |
| B2 | 0.216 µg/mL |
| B3 | 0.222 µg/mL |
| B4 | 0.213 µg/mL |
| B5 | 0.22 µg/mL |
| B6 | 0.131 µg/mL |
| B1 | 0.223 µg/mL |

Biological target: T1, human TNFα (recombinant, soluble)
Experiment: antigen-down ELISA, plate coated with human TNFα
Remark: another data set of the same source
Experimental: as §1

| Binder | EC50 |
| --- | --- |
| B1 | 0.28 µg/mL |
